24 substances from patent US20220273789A1 can be followed below.

Like-named read-outs stand apart in the source and are kept apart here.

Assay [1] addresses human IgG (human). Kind of assay: BLI Octet, construct on Ni-NTA sensor, hIgG in solution. On the technique in general: In BLI a coated tip is dipped into the sample, and binding shifts an interference pattern.
In assay [2] the target is human IgG (human). Kind of assay: BLI (Octet), gEgI on Ni-NTA sensor, hIgG in solution.
The target of assay [3] is human IgG (human). Described as above. The source holds these as a separate data set.
For assay [4], the target named is Recombinant HSV1 gEgI protein (coating antigen of the competitive ELISA, produced in ExpiCHO) (HSV1 strain KOS321; HSV1 strain 17). The experiment in a line: ED50 of the competitive ELISA (competitor: human IgG); GM of N=5 mice, 21PII (D49); 5 is the value given to negative samples (first dilution/2), below the positivity threshold (1/10).
For assay [5] the target is unchanged. The experiment in a line: ED50 of the competitive ELISA (competitor: human IgG); GM of N=4 mice, 14PIII (D42); 5 is the value given to negative samples (first dilution/2), below the positivity threshold (1/10). For orientation: An ELISA detects its analyte on a solid surface through an enzyme-linked reagent.
Assay [6] deals with Recombinant HSV2 gEgI protein (coating antigen of the competitive ELISA, produced in ExpiHEK293F) (HSV2 strain SD90e) (UniProt P89475). The assay is described as above.
For assay [7] the target is unchanged. Kind of assay: ED50 of the competitive ELISA (competitor: human IgG); GM of N=4 mice, 21PIII (D63); bar below the positivity threshold (1/10), 5 being the first dilution/2.
The target in assay [8] is human IgG (human). The experiment in a line: BLI (Octet), His-tagged gEgI immobilised on Ni-NTA sensor, response to human IgG.

For “HSV2-gE_H245G R320D_gI (from UniProt P89475 21-416; P06764 21-256) (receptor)”, in the assay with human IgG (human) [1], the dissociation constant (Kd) (usually the concentration at which binding is half-saturated) was found to be 14200 nM, the Response (nm) amounted to 0.0927 nm, the koff (usually the rate constant with which the complex falls apart) was found to be 0.00667 s⁻¹ and the kon (usually the second-order rate constant of association) was found to be 469 M⁻¹ s⁻¹. In the assay with human IgG (human) [2], this substance returned a Kd of 14200 nM and a Response of 0.0927 nm.

Turning to “HSV2-gE_H245G R320G_gI (from UniProt P89475 21-416; P06764 21-256) (receptor)”, in the assay with human IgG (human) [1], the Kd came to 777 nM, the Response (nm) turned out to be 0.225 nm, the koff worked out at 0.00407 s⁻¹ and the kon was 5240 M⁻¹ s⁻¹. In the assay with human IgG (human) [2], this substance registered a Kd of 777 nM and a Response of 0.225 nm.

As for “HSV2-gE_H245S R320D_gI (from UniProt P89475 21-416; P06764 21-256) (receptor)”, in the assay with human IgG (human) [1], the Kd is 1740 nM, the Response (nm) was determined as 0.121 nm, the koff stood at 0.00468 s⁻¹ and the on-rate (kon) came out at 2690 M⁻¹ s⁻¹. Further, in the assay with human IgG (human) [2], the Kd came to 1740 nM and the Response was 0.121 nm.

As for “HSV2-gE_H245S R320G_gI (from UniProt P89475 21-416; P06764 21-256) (receptor)”, in the assay with human IgG (human) [1], the Kd amounted to 745 nM, the Response (nm) is 0.196 nm, the off-rate constant (koff) was determined as 0.0039 s⁻¹ and the on-rate (kon) is 5240 M⁻¹ s⁻¹. In the assay with human IgG (human) [2], this substance registered a dissociation constant (Kd) of 745 nM and a Response of 0.196 nm.

“HSV2-gE_H245S R320T_gI (from UniProt P89475 21-416; P06764 21-256) (receptor)”: in the assay with human IgG (human) [1], the Kd worked out at 718 nM, the Response (nm) was 0.205 nm, the off-rate (koff) was found to be 0.00503 s⁻¹ and the on-rate constant (kon) was 7000 M⁻¹ s⁻¹. Further, in the assay with human IgG (human) [2], the equilibrium dissociation constant (Kd) worked out at 718 nM and the Response was determined as 0.205 nm.

In the assay with human IgG (human) [1], “HSV2-gE_P318I_gI (from UniProt P89475 21-416; P06764 21-256) (receptor)” returned a Kd of 4440 nM, a Response (nm) of 0.163 nm, a dissociation rate constant (koff) of 0.00752 s⁻¹ and a kon of 1690 M⁻¹ s⁻¹. Further, in the assay with human IgG (human) [2], the equilibrium dissociation constant (Kd) came to 4440 nM and the Response is 0.163 nm.

“HSV2-gE_P318R S338G_gI (from UniProt P89475 21-416; P06764 21-256) (receptor)”: in the assay with human IgG (human) [2], the Kd is 0.001 nM. In the assay with human IgG (human) [3], this substance showed a Kd of under 0.001 nM, a Response of 0.177 nm, a koff of under 1e-07 s⁻¹ and a kon of 8690 M⁻¹ s⁻¹.

In the assay with human IgG (human) [1], “HSV2-gE_R320E_gI (from UniProt P89475 21-416; P06764 21-256) (receptor)” came in with an equilibrium dissociation constant (Kd) of 4950 nM, a Response (nm) of 0.223 nm, a koff of 0.00455 s⁻¹ and a kon of 919 M⁻¹ s⁻¹. For the same substance, in the assay with human IgG (human) [2], the equilibrium dissociation constant (Kd) was determined as 4950 nM and the Response is 0.223 nm.

Consider “HSV2-gE_V340D_gI (from UniProt P89475 21-416; P06764 21-256) (receptor)”, for which, in the assay with human IgG (human) [1], the Kd is under 0.001 nM, the Response (nm) stood at 0.115 nm, the dissociation rate constant (koff) is under 1e-07 s⁻¹ and the kon worked out at 5330 M⁻¹ s⁻¹. Further, in the assay with human IgG (human) [2], the dissociation constant (Kd) came out at 0.001 nM and the Response amounted to 0.115 nm.

In the assay with human IgG (human) [1], “HSV2-gE_V340F_gI (from UniProt P89475 21-416; P06764 21-256) (receptor)” yielded a dissociation constant (Kd) of under 0.001 nM, a Response (nm) of 0.114 nm, a koff of under 1e-07 s⁻¹ and a kon of 3140 M⁻¹ s⁻¹. In the assay with human IgG (human) [2], this substance came in with a Kd of 0.001 nM and a Response of 0.114 nm.

For the substance “HSV2-gE_V340W_gI (from UniProt P89475 21-416; P06764 21-256) (receptor)”, in the assay with human IgG (human) [1], the equilibrium dissociation constant (Kd) is under 0.001 nM, the Response (nm) was determined as 0.0751 nm, the koff is under 1e-07 s⁻¹ and the on-rate constant (kon) was 3520 M⁻¹ s⁻¹. Moreover, in the assay with human IgG (human) [2], the Kd turned out to be 0.001 nM and the Response amounted to 0.0751 nm.

Take NaCl150mM: the ED50 titer (geometric mean) (reciprocal dilution) in assay [4], in assay [6] and in assay [7] was 5 throughout. Also, in assay [5], the ED50 (geometric mean) (reciprocal dilution) turned out to be 5.

In the case of “PN90 (HSV2-gE_gI) (from UniProt P89475 21-416; P06764 21-256) (receptor)”, the hIgG binding response with human IgG (human) [8] was found to be 0.623 nm.

With “PN91 (HSV2-gE_P317R-P319D_gI) (from UniProt P89475 21-416; P06764 21-256) (receptor)”, the hIgG binding response in the assay with human IgG (human) [8] was determined as 0.0658 nm.

As to “PN92 (HSV2-gE_P317R-R320D_gI) (from UniProt P89475 21-416; P06764 21-256) (receptor)”, in the assay with human IgG (human) [8], the hIgG binding response stood at 0.056 nm.

In turn, “PN93 (HSV2-gE_P319D-R320D_gI) (from UniProt P89475 21-416; P06764 21-256) (receptor)” displayed a hIgG binding response with human IgG (human) [8] of 0.0658 nm.

Substance “PN94 (HSV2-gE_Δ319-320_gI) (from UniProt P89475 21-416; P06764 21-256) (receptor)” gave a hIgG binding response with human IgG (human) [8] of 0.115 nm.

As for “PN95 (HSV2-gE_P317G-P318G_Δ319-320_gI) (from UniProt P89475 21-416; P06764 21-256) (receptor)”, the hIgG binding response with human IgG (human) [8] stood at 0.0748 nm.

In the case of “PN96 (HSV2-gE_P318E_Δ319-320_gI) (from UniProt P89475 21-416; P06764 21-256) (receptor)”, the hIgG binding response with human IgG (human) [8] worked out at 0.0619 nm.

As for “PN97 (HSV2-gE_P318G_Δ319-320_gI) (from UniProt P89475 21-416; P06764 21-256) (receptor)”, in the assay with human IgG (human) [8], the hIgG binding response came out at 0.146 nm.

Turning to “PN98 (HSV2-gE_P318K_Δ319-320_gI) (from UniProt P89475 21-416; P06764 21-256) (receptor)”, the hIgG binding response with human IgG (human) [8] is 0.135 nm.

“PN99 (HSV2-gE_P317R-P318E_Δ319-320_gI) (from UniProt P89475 21-416; P06764 21-256) (receptor)”: in the assay with human IgG (human) [8], the hIgG binding response came to 0.0795 nm.

As for “PN100 (HSV2-gE_P317R-P318G_Δ319-320_gI) (from UniProt P89475 21-416; P06764 21-256) (receptor)”, the hIgG binding response with human IgG (human) [8] amounted to 0.0877 nm.

Substance “PN101 (HSV2-gE_P317G-P318K_Δ319-320_gI) (from UniProt P89475 21-416; P06764 21-256) (receptor)” gave a hIgG binding response in the assay with human IgG (human) [8] of 0.0868 nm.
